In article PMC9482650, “Quantitative fragmentomics allow affinity mapping of interactomes” (Nature Communications, 2022):

Tests used:
Assay in all cases: holdup assay
Set-up in all cases: key: below the threshold = too weak to quantify, mostly under pKd 3.1 to 4
[1] = target: ARHGEF12, Q9NZN5-2
[2] = target: T1, CARD11, Q9BXL7
T1 sequence (Q9BXL7 662-765, limits assumed, looked up): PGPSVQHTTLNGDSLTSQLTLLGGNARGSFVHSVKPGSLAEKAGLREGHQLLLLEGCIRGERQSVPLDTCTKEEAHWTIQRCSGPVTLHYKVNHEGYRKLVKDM

[3] = target: T2, DLG3_2, Q92796
T2 sequence (Q92796 221-321, limits assumed, looked up): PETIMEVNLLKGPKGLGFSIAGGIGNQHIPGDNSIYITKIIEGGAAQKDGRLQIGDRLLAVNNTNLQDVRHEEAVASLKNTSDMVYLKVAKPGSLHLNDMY

[4] = target: T3, DLG3_3, Q92796
T3 sequence (Q92796 374-475, limits assumed, looked up): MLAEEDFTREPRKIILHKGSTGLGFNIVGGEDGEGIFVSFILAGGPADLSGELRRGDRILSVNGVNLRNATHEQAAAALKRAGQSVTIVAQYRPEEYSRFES

[5] = target: FRMPD2_2, Q68DX3
[6] = target: GIPC2, Q8TF65
[7] = target: T4, GRIP1_2, Q9Y3R0
T4 sequence (Q9Y3R0 145-248, limits assumed, looked up): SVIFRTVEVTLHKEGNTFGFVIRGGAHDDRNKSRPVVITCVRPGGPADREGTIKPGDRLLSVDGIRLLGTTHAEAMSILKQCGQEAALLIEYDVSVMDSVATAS

[8] = target: GRIP2_4, Q9C0E4
[9] = target: GRIP2_5, Q9C0E4
[10] = target: GRIP2_7, Q9C0E4
[11] = target: IL16_4, Q14005
[12] = target: Inadl_4, Q8NI35
[13] = target: T5, LNX2_3, Q8N448
T5 sequence (Q8N448 463-564, limits assumed, looked up): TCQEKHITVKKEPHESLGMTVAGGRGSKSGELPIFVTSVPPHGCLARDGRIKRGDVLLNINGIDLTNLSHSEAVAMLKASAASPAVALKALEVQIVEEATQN

[14] = target: T6, MPP2, Q14168
T6 sequence (Q14168 180-250, limits assumed, looked up): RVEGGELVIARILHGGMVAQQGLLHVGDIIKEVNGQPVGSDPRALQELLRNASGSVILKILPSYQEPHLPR

[15] = target: T7, MPP6, Q9NZW5
T7 sequence (Q9NZW5 125-219, limits assumed, looked up): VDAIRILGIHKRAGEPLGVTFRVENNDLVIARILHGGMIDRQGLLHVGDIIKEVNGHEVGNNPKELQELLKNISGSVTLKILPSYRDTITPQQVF

[16] = target: T8, MPP7, Q5T2T1
T8 sequence (Q5T2T1 134-230, limits assumed, looked up): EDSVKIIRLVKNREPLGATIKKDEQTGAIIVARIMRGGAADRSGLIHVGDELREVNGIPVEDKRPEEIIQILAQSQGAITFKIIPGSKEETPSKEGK

[17] = target: NHERF4_1, Q86UT5-2
[18] = target: NOS1, P29475
[19] = target: PDLIM1, O00151
[20] = target: PTPN3, P26045
[21] = target: T9, RHPN1, Q8TCX5
T9 sequence (Q8TCX5 508-602, limits assumed, looked up): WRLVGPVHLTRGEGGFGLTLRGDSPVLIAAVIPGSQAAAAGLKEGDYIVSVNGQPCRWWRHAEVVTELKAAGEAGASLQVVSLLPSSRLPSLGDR

[22] = target: SCRIB_1, Q14160
[23] = target: SCRIB_3, Q14160
[24] = target: T10, SIPA1L2, Q9P2F8
T10 sequence (Q9P2F8 945-1036, limits assumed, looked up): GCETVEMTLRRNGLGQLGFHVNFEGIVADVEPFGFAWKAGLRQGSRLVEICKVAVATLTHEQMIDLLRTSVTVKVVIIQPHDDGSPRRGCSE

[25] = target: T11, SNTG2, Q9NY99
T11 sequence (Q9NY99 68-166, limits assumed, looked up): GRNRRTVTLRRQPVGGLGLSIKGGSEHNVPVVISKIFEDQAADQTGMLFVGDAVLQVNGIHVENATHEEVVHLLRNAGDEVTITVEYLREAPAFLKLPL

[26] = target: TJP2_1, Q9UDY2
[27] = plain residues with an end cap or a label only (N-terminal biotin on a linker: ado-ado)
[28] = plain residues with an end cap or a label only (N-terminal biotin on a linker: (peg)3)

SCRIB_1, Q14160, sequence (Q14160 718-814): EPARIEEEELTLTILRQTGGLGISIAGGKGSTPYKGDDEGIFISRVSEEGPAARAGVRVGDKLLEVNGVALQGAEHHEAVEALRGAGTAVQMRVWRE
IL16_4, Q14005, sequence (Q14005 1229-1329): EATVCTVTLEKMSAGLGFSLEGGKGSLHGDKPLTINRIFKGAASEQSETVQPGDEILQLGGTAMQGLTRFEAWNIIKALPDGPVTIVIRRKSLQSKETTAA
FRMPD2_2, Q68DX3, sequence (Q68DX3 944-1038): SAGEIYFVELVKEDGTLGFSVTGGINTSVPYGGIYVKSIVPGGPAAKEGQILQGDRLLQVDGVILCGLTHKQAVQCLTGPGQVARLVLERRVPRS
Inadl_4, Q8NI35, sequence (Q8NI35 547-651): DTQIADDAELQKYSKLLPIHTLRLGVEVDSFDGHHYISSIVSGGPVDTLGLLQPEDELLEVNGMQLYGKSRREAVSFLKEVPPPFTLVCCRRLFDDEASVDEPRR
NHERF4_1, Q86UT5-2, sequence (Q86UT5 other isoform, or with tags, fused parts or gaps): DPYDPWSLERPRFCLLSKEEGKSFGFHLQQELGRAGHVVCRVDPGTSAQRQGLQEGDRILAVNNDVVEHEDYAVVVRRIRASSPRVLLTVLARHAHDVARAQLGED
PTPN3, P26045, sequence (P26045 505-587): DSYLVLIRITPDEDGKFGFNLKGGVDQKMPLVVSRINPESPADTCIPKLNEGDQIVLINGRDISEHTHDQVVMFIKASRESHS
GRIP2_4, Q9C0E4, sequence (Q9C0E4 446-548): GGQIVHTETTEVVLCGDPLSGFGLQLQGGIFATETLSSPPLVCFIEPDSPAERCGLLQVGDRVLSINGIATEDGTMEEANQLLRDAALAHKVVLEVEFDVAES
SCRIB_3, Q14160, sequence (Q14160 999-1103): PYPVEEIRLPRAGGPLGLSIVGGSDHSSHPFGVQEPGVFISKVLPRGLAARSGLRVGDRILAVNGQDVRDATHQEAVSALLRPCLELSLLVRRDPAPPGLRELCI
PDLIM1, O00151, sequence (O00151 1-87): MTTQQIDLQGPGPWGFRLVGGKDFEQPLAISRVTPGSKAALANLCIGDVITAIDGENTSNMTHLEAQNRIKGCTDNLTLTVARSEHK
ARHGEF12, Q9NZN5-2, sequence (Q9NZN5 other isoform, or with tags, fused parts or gaps): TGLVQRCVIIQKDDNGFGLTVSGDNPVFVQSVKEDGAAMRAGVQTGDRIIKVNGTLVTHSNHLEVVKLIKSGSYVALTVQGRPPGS
TJP2_1, Q9UDY2, sequence (Q9UDY2 24-128): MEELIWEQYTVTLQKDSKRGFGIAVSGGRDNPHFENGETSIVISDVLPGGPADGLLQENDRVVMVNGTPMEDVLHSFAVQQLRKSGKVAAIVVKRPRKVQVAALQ
GIPC2, Q8TF65, sequence (Q8TF65 112-203): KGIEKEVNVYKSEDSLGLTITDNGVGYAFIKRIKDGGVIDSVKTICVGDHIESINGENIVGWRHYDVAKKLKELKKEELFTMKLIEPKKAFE
GRIP2_7, Q9C0E4, sequence (Q9C0E4 934-1023): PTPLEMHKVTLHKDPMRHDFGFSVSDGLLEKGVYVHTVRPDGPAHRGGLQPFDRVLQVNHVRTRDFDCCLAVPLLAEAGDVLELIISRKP
NOS1, P29475, sequence (P29475 9-101): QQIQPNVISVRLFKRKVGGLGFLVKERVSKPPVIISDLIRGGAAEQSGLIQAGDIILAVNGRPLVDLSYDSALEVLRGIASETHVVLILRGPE
GRIP2_5, Q9C0E4, sequence (Q9C0E4 544-642): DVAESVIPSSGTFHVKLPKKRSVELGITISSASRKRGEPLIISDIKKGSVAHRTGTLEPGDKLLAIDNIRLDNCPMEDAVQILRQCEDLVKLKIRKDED

RPGFASESKV [ADRB1, P08588]
pKd [1, 27]: 3.52
pKd [2, 27]: below the threshold
pKd [3, 27]: 3.61
pKd [4, 27]: 3.7
pKd [5, 27]: 3.5
pKd [6, 27]: below the threshold
pKd [7, 27]: below the threshold
pKd [8, 27]: below the threshold
pKd [9, 27]: below the threshold
pKd [10, 27]: below the threshold
pKd [11, 27]: below the threshold
pKd [12, 27]: below the threshold
pKd [13, 27]: below the threshold
pKd [14, 27]: below the threshold
pKd [15, 27]: below the threshold
pKd [16, 27]: below the threshold
pKd [17, 27]: below the threshold
pKd [18, 27]: 3.6
pKd [19, 27]: below the threshold
pKd [20, 27]: 4.32
pKd [21, 27]: 4.59
pKd [22, 27]: 3.94
pKd [23, 27]: 3.49
pKd [24, 27]: below the threshold
pKd [25, 27]: 4.35
pKd [26, 27]: below the threshold

YDEPTTTTSVPL [SARS-Cov2-3a, P0DTC3]
pKd [1, 28]: below the threshold
pKd [2, 28]: below the threshold
pKd [3, 28]: below the threshold
pKd [4, 28]: below the threshold
pKd [5, 28]: below the threshold
pKd [6, 28]: below the threshold
pKd [7, 28]: below the threshold
pKd [8, 28]: below the threshold
pKd [9, 28]: below the threshold
pKd [10, 28]: below the threshold
pKd [11, 28]: below the threshold
pKd [12, 28]: below the threshold
pKd [13, 28]: below the threshold
pKd [14, 28]: below the threshold
pKd [15, 28]: below the threshold
pKd [16, 28]: below the threshold
pKd [17, 28]: 4.43
pKd [18, 28]: below the threshold
pKd [19, 28]: below the threshold
pKd [20, 28]: below the threshold
pKd [21, 28]: below the threshold
pKd [22, 28]: below the threshold
pKd [23, 28]: below the threshold
pKd [24, 28]: below the threshold
pKd [25, 28]: below the threshold
pKd [26, 28]: below the threshold

DFRHKSSFVI [JAM3, Q9BX67]
pKd [1, 27]: below the threshold
pKd [2, 27]: below the threshold
pKd [3, 27]: 4.16
pKd [4, 27]: below the threshold
pKd [5, 27]: below the threshold
pKd [6, 27]: below the threshold
pKd [7, 27]: below the threshold
pKd [8, 27]: below the threshold
pKd [9, 27]: below the threshold
pKd [10, 27]: below the threshold
pKd [11, 27]: below the threshold
pKd [12, 27]: below the threshold
pKd [13, 27]: below the threshold
pKd [14, 27]: 3.67
pKd [15, 27]: 3.62
pKd [16, 27]: 3.79
pKd [17, 27]: below the threshold
pKd [18, 27]: below the threshold
pKd [19, 27]: below the threshold
pKd [20, 27]: 3.84
pKd [21, 27]: below the threshold
pKd [22, 27]: below the threshold
pKd [23, 27]: below the threshold
pKd [24, 27]: below the threshold
pKd [25, 27]: below the threshold
pKd [26, 27]: below the threshold

RTQSSDSAYV [GJD2, Q9UKL4]
pKd [1, 27]: 4.35
pKd [2, 27]: below the threshold
pKd [3, 27]: below the threshold
pKd [4, 27]: below the threshold
pKd [5, 27]: below the threshold
pKd [6, 27]: below the threshold
pKd [7, 27]: below the threshold
pKd [8, 27]: below the threshold
pKd [9, 27]: below the threshold
pKd [10, 27]: below the threshold
pKd [11, 27]: below the threshold
pKd [12, 27]: below the threshold
pKd [13, 27]: below the threshold
pKd [14, 27]: below the threshold
pKd [15, 27]: below the threshold
pKd [16, 27]: below the threshold
pKd [17, 27]: 3.6
pKd [18, 27]: 3.95
pKd [19, 27]: below the threshold
pKd [20, 27]: 3.52
pKd [21, 27]: 3.84
pKd [22, 27]: below the threshold
pKd [23, 27]: below the threshold
pKd [24, 27]: below the threshold
pKd [25, 27]: below the threshold
pKd [26, 27]: 4.09

GQETPLNTFC [MAP7D2, Q96T17]
pKd [1, 27]: 3.77
pKd [2, 27]: below the threshold
pKd [3, 27]: 3.93
pKd [4, 27]: below the threshold
pKd [5, 27]: below the threshold
pKd [6, 27]: below the threshold
pKd [7, 27]: below the threshold
pKd [8, 27]: below the threshold
pKd [9, 27]: below the threshold
pKd [10, 27]: below the threshold
pKd [11, 27]: below the threshold
pKd [12, 27]: below the threshold
pKd [13, 27]: below the threshold
pKd [14, 27]: below the threshold
pKd [15, 27]: 3.62
pKd [16, 27]: below the threshold
pKd [17, 27]: 3.6
pKd [18, 27]: below the threshold
pKd [19, 27]: below the threshold
pKd [20, 27]: 4.38
pKd [21, 27]: below the threshold
pKd [22, 27]: 3.88
pKd [23, 27]: below the threshold
pKd [24, 27]: below the threshold
pKd [25, 27]: 3.7
pKd [26, 27]: below the threshold
